# According to patent US20250248992A1, “INNATE IMMUNE-ACTIVATING DRUG AND USE THEREOF” (LUODA BIOPHARMA (SUZHOU) CO., LTD., priority 2021, published 2025):
# Tested on: OVA-specific antibodies in serum
# Assay: Immune adjuvant activity with ovalbumin (OVA), serum antibody ELISA
# Format: in vivo, mice
# Conditions: OVA alone, intramuscular, Day 0, 7, 14, serum Day 21
molecule,measurement,value
"ovalbumin (protein, UniProt P01012 2-386, looked up, Antigen ovalbumin (OVA) used for immunization of mice) Ovalbumin: GSIGAASMEFCFDVFKELKVHHANENIFYCPIAIMSALAMVYLGAKDSTRTQINKVVRFDKLPGFGDSIEAQCGTSVNVHSSLRDILNQITKPNDVYSFSLASRLYAEERYPILPEYLQCVKELYRGGLEPINFQTAADQARELINSWVESQTNGIIRNVLQPSSVDSQTAMVLVNAIVFKGLWEKAFKDEDTQAMPFRVTEQESKPVQMMYQIGLFRVASMASEKMKILELPFASGTMSMLVLLPDEVSGLEQLESIINFEKLTEWTSSNVMEERKIKVYLPRMKMEEKYNLTSVLMAMGITDVFSSSANLSGISSAESLKISQAVHAAHAEINEAGREVVGSAEAGVDAASVSEEFRADHPFLFCIKHIATNAVLFFGRCVSP",protective humoral immune response after immunization,did not generate a protective humoral immune response
